Test results published in paper PMC8843702 (2022).

B1: P5-22 (antibody, V domains shown)
VH: EVQLVESGGGLVKPGGSLRLSCAASGFTFRDYDIIWIRQAPGKGLEWVSYISRSGSTIYYSDSVRGRFTISRDNAKNSVYLQMNSLRAEDTAVYYCARDFGFEGPRMDVWGQGTTVTVSS
VL: DIQMTQSPSSLSASVGDRVTITCQASQDIKNYLNWYQQKPGKAPKLLIYDASNLETGVPSRFSGSGSGTDFTFTISSLQPEDIATYYCQQFDNLPITFGQGTRLEIK
B2: polymeric P5-22 (antibody, V domains shown)
VH: EVQLVESGGGLVKPGGSLRLSCAASGFTFRDYDIIWIRQAPGKGLEWVSYISRSGSTIYYSDSVRGRFTISRDNAKNSVYLQMNSLRAEDTAVYYCARDFGFEGPRMDVWGQGTTVTVSS
VL: DIQMTQSPSSLSASVGDRVTITCQASQDIKNYLNWYQQKPGKAPKLLIYDASNLETGVPSRFSGSGSGTDFTFTISSLQPEDIATYYCQQFDNLPITFGQGTRLEIK

Tests used:
Test in all cases: SPR
[1] = target: T1, WT SARS-CoV-2 S RBD protein (SARS-CoV-2, UniProt P0DTC2)
SARS-CoV-2 S protein = SARS-CoV-2 S protein (SARS-CoV-2, UniProt P0DTC2)
[2] = target: T1, WT SARS-CoV-2 S RBD protein; remark: listed apart in the source

Binder	Kd [1] [pM]	Kd (SARS-CoV-2 S protein) [pM]	koff [2] [s⁻¹]
B1	< 4.59	< 3.34	< 1e-05
B2	< 0.498		< 1e-05
